Results as given in IntAct's records for PubMed 26356530.

B1: Histone deacetylase 3 (Homo sapiens), O15379 (parent)
chain: MAKTVAYFYDPDVGNFHYGAGHPMKPHRLALTHSLVLHYGLYKKMIVFKPYQASQHDMCRFHSEDYIDFLQRVSPTNMQGFTKSLNAFNVGDDCPVFPGLFEFCSRYTGASLQGATQLNNKICDIAINWAGGLHHAKKFEASGFCYVNDIVIGILELLKYHPRVLYIDIDIHHGDGVQEAFYLTDRVMTVSFHKYGNYFFPGTGDMYEVGAESGRYYCLNVPLRDGIDDQSYKHLFQPVINQVVDFYQPTCIVLQCGADSLGCDRLGCFNLSIRGHGECVEYVKSFNIPLLVLGGGGYTVRNVARCWTYETSLLVEEAISEELPYSEYFEYFAPDFTLHPDVSTRIENQNSRQYLDQIRQTIFENLKMLNHAPSVQIHDVPADLLTYDRTDEADAEERGPEENYSRPEAPNEFYDGDHDNDKESDVEI
partner: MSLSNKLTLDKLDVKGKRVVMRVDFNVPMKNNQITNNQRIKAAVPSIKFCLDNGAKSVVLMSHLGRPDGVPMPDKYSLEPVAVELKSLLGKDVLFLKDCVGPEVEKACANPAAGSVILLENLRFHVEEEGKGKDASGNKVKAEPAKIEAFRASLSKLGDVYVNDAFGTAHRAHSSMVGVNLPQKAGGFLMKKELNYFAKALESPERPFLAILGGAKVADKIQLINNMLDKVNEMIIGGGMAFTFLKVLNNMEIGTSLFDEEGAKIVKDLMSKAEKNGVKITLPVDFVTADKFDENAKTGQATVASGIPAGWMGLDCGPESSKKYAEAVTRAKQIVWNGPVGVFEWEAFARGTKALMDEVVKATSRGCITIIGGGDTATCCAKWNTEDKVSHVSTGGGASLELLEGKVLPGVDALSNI

Variants of: B1
Details: with pgk1_human PGK1, P00558

Row | effect of a mutation on the interaction | Variant
1 | decreasing interaction strength | S424A

Variants of: B1
Details: with PGK1, P00558-1

Row | effect of a mutation on the interaction | Variant
2 | decreasing interaction strength | S424A
